In article doi:10.1101/2025.09.24.678203 (bioRxiv, 2025):

T1: T. brucei canonical histone H2A (T. brucei brucei, UniProt Q57YA3 2-134)
T1 construct: Canonical histone H2A of Trypanosoma brucei brucei, Tb927.7.2820, pET21a plasmid from the Janzen lab; also called Tb H2A
T1 sequence: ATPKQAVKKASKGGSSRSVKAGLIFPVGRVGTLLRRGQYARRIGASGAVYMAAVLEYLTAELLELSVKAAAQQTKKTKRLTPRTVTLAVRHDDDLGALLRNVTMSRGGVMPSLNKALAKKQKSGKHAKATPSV

B1: T. brucei canonical histone H2B (natural protein, T. brucei brucei)
chain: ATPKSTPAKTRKEAKKTRRQRKRTWNVYVSRSLRSINSQMSMTSRTMKIVNSFVNDLFERIAAEAATIVRVNRKRTLGARELQTAVRLVLPADLAKHAMAEGTKAVSHASS
notes: Canonical histone H2B of Trypanosoma brucei brucei, Tb927.10.10480, pET21a plasmid from the Janzen lab; also called Tb H2B
B2: T. brucei canonical histone H4 (natural protein)
chain: not shown
notes: Canonical histone H4 of Trypanosoma brucei brucei, Tb927.5.4170, pET21a plasmid from the Janzen lab; also called Tb H4

What was measured:
[1] = biological target: T1, T. brucei canonical histone H2A; assay: cryo-EM structure; H3.V-H4.V NCP (H2A, H2B, H3.V, H4.V) wrapped with Widom 601 145 bp DNA, crosslinked with 0.05% glutaraldehyde, separated by SEC; grids in 10 mM Tris pH 8.0, 30 mM NaCl, 1 mM EDTA, 1 mM DTT; global resolution 3.2 Å; details: both partners purified
[2] = biological target: T2, T. brucei canonical histone H3 (T. brucei brucei, UniProt Q4GYX7 2-133); assay: in vitro reconstitution of histone octamers and nucleosomes (SEC, native PAGE, SDS-PAGE); purified histones combined at a 1.2:1.2:1:1 H2A:H2B:H3(V):H4(V) molar ratio, dialysed into 2 M NaCl Octamer Buffer, octamers purified on Superdex200; wrapped with Widom 601 145 bp, Widom 603 177 bp or Widom 603 193 bp DNA by salt gradient dialysis; checked by native and SDS PAGE; details: both partners purified
T2 construct: Canonical histone H3 of Trypanosoma brucei brucei, Tb927.1.2430, pET21a plasmid from the Janzen lab; also called Tb H3

| Binder | binding result [1] | binding result [2] |
| --- | --- | --- |
| B1 | binds |  |
| B2 |  | binds |
